Changes are numbered by the printed parent chain. Blank lines part the entries; values can stand above or below the binder they belong to. Starred links: 1 amine or outer side, 2 acyl side, 3 side chain; linkers in the order of their positions; H or OH if unused. Non-standard residues stand in square brackets, D forms with d. Groups on a side chain read outwards from the residue. No end group written: not given here. *: point of attachment. C20 diacid = O=C(O)CCCCCCCCCCCCCCCCCCC(=O)*; C18 diacid = O=C(O)CCCCCCCCCCCCCCCCC(=O)*; γGlu = O=C(O)[C@H](CCC(=O)[*:2])N[*:1]; εLys = N[C@@H](CCCCN[*:1])C(=O)[*:2]; AEEA = NCCOCCOCC(=O)O; Aib = CC(C)(N)C(=O)O
Assays:
Assay in all cases: cell-based or functional assay
GLP-1 receptor = GLP-1 receptor (human (printed as hGLP1R), UniProt P43220 24-463)
GIP receptor = molecular target: T1, GIP receptor (human (printed as hGIPR), UniProt P48546 22-466)
T1 sequence (looked up): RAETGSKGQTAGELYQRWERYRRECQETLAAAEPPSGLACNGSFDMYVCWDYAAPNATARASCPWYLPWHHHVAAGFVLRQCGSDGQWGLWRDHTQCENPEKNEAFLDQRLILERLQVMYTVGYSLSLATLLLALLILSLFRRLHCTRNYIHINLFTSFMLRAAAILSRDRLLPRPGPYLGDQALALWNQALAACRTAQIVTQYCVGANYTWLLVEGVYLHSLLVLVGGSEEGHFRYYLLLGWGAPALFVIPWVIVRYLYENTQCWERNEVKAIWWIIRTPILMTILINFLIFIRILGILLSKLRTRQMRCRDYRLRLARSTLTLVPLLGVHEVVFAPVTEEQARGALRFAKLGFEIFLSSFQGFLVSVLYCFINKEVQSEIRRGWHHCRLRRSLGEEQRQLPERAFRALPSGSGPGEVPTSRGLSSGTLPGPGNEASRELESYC

NPY2 receptor = molecular target: T2, NPY2 receptor (human (printed as hNPY2R), UniProt P49146 1-381)
T2 sequence (looked up): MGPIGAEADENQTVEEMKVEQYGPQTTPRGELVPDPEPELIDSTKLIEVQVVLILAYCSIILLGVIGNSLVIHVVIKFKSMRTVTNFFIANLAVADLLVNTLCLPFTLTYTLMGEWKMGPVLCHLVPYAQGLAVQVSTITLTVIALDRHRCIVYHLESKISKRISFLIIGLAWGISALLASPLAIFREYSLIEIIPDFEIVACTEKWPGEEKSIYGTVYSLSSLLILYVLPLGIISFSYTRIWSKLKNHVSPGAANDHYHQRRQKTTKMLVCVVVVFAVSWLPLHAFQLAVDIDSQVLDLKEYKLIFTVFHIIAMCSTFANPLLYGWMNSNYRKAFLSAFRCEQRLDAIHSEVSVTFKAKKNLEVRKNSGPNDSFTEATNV

human GLP-1 receptor = human GLP-1 receptor (human, UniProt P43220 24-463)
human GIP receptor = molecular target: T3, human GIP receptor (human, UniProt P48546 22-466)
T3 sequence (looked up): T1 sequence (looked up)

[1] = molecular target: T4, human neuropeptide Y2 (NPY2) receptor (human, UniProt P49146 1-381)
T4 sequence (looked up): T2 sequence (looked up)

EC50 hGLP1R 0.5% hP (CreLuc) (GLP-1 receptor): 0.17 nM
EC50 hGLP1R 100% hP (CreLuc) (GLP-1 receptor): 2.52 nM
EC50 hGIPR 0.5% hP (CreLuc) (GIP receptor): 0.16 nM
EC50 hGIPR 100% hP (CreLuc) (GIP receptor): 1.23 nM
EC50 hNPY2R 0.5% hP (CreLuc) (NPY2 receptor): 22.3 nM
EC50 hNPY2R 100% hP (CreLuc) (NPY2 receptor): 72 nM
Binder: Y[Aib]EGTFTSDYSI[Aib]LEKQAQ[Aib]AFIEWLIKGGPSEGASLRHYYNWLTRQRY-NH2 (not fully specified (residue 28); also: TFA salt) [Compound 258]

EC50, CreLuc assay, 0.5% hP (human GLP-1 receptor): 0.47 nM
EC50, CreLuc assay, 100% hP (human GLP-1 receptor): 37.7 nM
EC50, CreLuc assay, 0.5% hP (human GIP receptor): 0.56 nM
EC50, CreLuc assay, 100% hP (human GIP receptor): 11.4 nM
EC50, CreLuc assay, 0.5% hP [1]: 10.1 nM
EC50, CreLuc assay, 100% hP [1]: 72.4 nM
Binder: Y[Aib]EGTFTSDYSI[Aib]LEKQAQ[Aib]AFVQWLIK([εLys-Glu-γGlu-γGlu-γGlu-γGlu-C20 diacid])GGPEYYASLRHYYNWLTRQRY-NH2 (also: TFA salt) [Compound 23]

EC50 hGLP1R 0.5% hP (CreLuc) (GLP-1 receptor): 0.18 nM
EC50 hGLP1R 100% hP (CreLuc) (GLP-1 receptor): 4.59 nM
EC50 hGIPR 0.5% hP (CreLuc) (GIP receptor): 0.23 nM
EC50 hGIPR 100% hP (CreLuc) (GIP receptor): 1.56 nM
EC50 hNPY2R 0.5% hP (CreLuc) (NPY2 receptor): 10.9 nM
EC50 hNPY2R 100% hP (CreLuc) (NPY2 receptor): 27 nM
Binder: Y[Aib]EGTFTSDYSI[Aib]LEKQAQ[Aib]AFVEWLIK([AEEA-AEEA-γGlu-γGlu-γGlu-γGlu-C18 diacid])GGPSEPASLRHYYNWLTRQRY-NH2 (also: TFA salt) [Compound 256]

EC50 hGLP1R 0.5% hP (CreLuc) (GLP-1 receptor): 0.07 nM
EC50 hGLP1R 100% hP (CreLuc) (GLP-1 receptor): 1.69 nM
EC50 hGIPR 0.5% hP (CreLuc) (GIP receptor): 0.22 nM
EC50 hGIPR 100% hP (CreLuc) (GIP receptor): 0.63 nM
EC50 hNPY2R 0.5% hP (CreLuc) (NPY2 receptor): 17.8 nM
EC50 hNPY2R 100% hP (CreLuc) (NPY2 receptor): 30.9 nM
Binder: Y[Aib]EGTFTSDYSI[Aib]LEKQAQ[Aib]AFVEWLIK([AEEA-AEEA-γGlu-γGlu-γGlu-γGlu-C18 diacid])GGPSSGASLRHYYNWLTRQRY-NH2 (also: TFA salt) [Compound 254]

EC50 hGLP1R 0.5% hP (CreLuc) (GLP-1 receptor): 0.49 nM
EC50 hGLP1R 100% hP (CreLuc) (GLP-1 receptor): 7.16 nM
EC50 hGIPR 0.5% hP (CreLuc) (GIP receptor): 0.16 nM
EC50 hGIPR 100% hP (CreLuc) (GIP receptor): 0.98 nM
EC50 hNPY2R 0.5% hP (CreLuc) (NPY2 receptor): 20.6 nM
EC50 hNPY2R 100% hP (CreLuc) (NPY2 receptor): 48.7 nM
Binder: Y[Aib]EGTFTSDYSI[Aib]LEKQAE[Aib]AFVEWLIK([AEEA-AEEA-γGlu-γGlu-γGlu-γGlu-C18 diacid])GGPSEGASLRHYYNWLTRQRY-NH2 (also: TFA salt) [Compound 251]

EC50, CreLuc assay, 0.5% hP (human GLP-1 receptor): 0.12 nM
EC50, CreLuc assay, 100% hP (human GLP-1 receptor): 1.94 nM
EC50, CreLuc assay, 0.5% hP (human GIP receptor): 0.36 nM
EC50, CreLuc assay, 100% hP (human GIP receptor): 1.98 nM
EC50, CreLuc assay, 0.5% hP [1]: 85.7 nM
EC50, CreLuc assay, 100% hP [1]: 224 nM
B1: Compound 18 (peptide)
peptide: YXEGTFTSDYSIXLEKQAQXAFVEWLIKGGPSSGASLRHYXNRXTRQRY
modifications: Aib at 2, 13, 20, 41, 44; K28 side chain: C20DA-gGlu-gGlu-gGlu-gGlu-gGlu-gGlu-eLys; C-terminal NH2

EC50, CreLuc assay, 0.5% hP (human GLP-1 receptor): 0.87 nM
EC50, CreLuc assay, 100% hP (human GLP-1 receptor): 24.3 nM
EC50, CreLuc assay, 0.5% hP (human GIP receptor): 0.93 nM
EC50, CreLuc assay, 100% hP (human GIP receptor): 7.75 nM
EC50, CreLuc assay, 0.5% hP [1]: 19.1 nM
EC50, CreLuc assay, 100% hP [1]: 62 nM
B2: Compound 20 (peptide)
peptide: B1 peptide with E15A, K16A, Q17A, X41Y, R43W, X44L
modifications: Aib at 2, 13, 20; K28 side chain: C20DA-gGlu-gGlu-gGlu-gGlu-gGlu-gGlu-eLys; C-terminal NH2

EC50, CreLuc assay, 0.5% hP (human GLP-1 receptor): 0.67 nM
EC50, CreLuc assay, 100% hP (human GLP-1 receptor): 14.2 nM
EC50, CreLuc assay, 0.5% hP (human GIP receptor): 0.98 nM
EC50, CreLuc assay, 100% hP (human GIP receptor): 6.97 nM
EC50, CreLuc assay, 0.5% hP [1]: 13 nM
EC50, CreLuc assay, 100% hP [1]: 38.3 nM
B3: Compound 25 (peptide)
peptide: B1 peptide with K16A, Q17A, A18K, X41Y, R43W, X44L
modifications: Aib at 2, 13, 20; K28 side chain: C20DA-gGlu-gGlu-gGlu-gGlu-gGlu-gGlu-eLys; C-terminal NH2

EC50, CreLuc assay, 0.5% hP (human GLP-1 receptor): 1.77 nM
EC50, CreLuc assay, 100% hP (human GLP-1 receptor): 15.3 nM
EC50, CreLuc assay, 0.5% hP (human GIP receptor): 4.1 nM
EC50, CreLuc assay, 100% hP (human GIP receptor): 17.7 nM
EC50, CreLuc assay, 0.5% hP [1]: 26.8 nM
EC50, CreLuc assay, 100% hP [1]: 94.5 nM
B4: Compound 24 (peptide)
peptide: B1 peptide with K16X, Q17K, A21E, X41Y, R43W, X44L
modifications: Aib at 2, 13, 16, 20; K28 side chain: C20DA-gGlu-gGlu-gGlu-gGlu-gGlu-gGlu-eLys; C-terminal NH2
